Drawing on patent EP4725501A1, this text covers Inhibit hemolysis IC50, IC50 (nM), inhibition of MASP3 enzyme activity (cleavage of fluorescent tripeptide Boc-Val-Pro-Arg-AMC) and EC50 for one substance.

Read-outs that look alike come from different tables or passages of the source.

Test [1] deals with MASP3 in Factor D depleted human plasma (human) (UniProt P48740). The test is described as follows: cell-based or functional assay.
Test [2] concerns the target human MASP3-His (human) (UniProt P48740). The test is described as follows: cell-based or functional assay.
Test [3] has as its target MASP3 in Factor D depleted human plasma (human) (UniProt P48740). Put plainly: cell-based or functional assay. The source holds these as a separate data set.
Test [4] addresses human MASP3-His (human) (UniProt P48740). Put plainly: ELISA; antigen coated 0.1 ug/well, antibody titrated, goat anti-human IgG-HRP.
For test [5], the target named is monkey MASP3-His (monkey). Described as above.
Another test deals with mouse MASP3-His (mouse) (UniProt P98064). The test is described as above.
mouse MASP3-His (mouse), sequence (P98064 other isoform, or with tags, fused parts or gaps): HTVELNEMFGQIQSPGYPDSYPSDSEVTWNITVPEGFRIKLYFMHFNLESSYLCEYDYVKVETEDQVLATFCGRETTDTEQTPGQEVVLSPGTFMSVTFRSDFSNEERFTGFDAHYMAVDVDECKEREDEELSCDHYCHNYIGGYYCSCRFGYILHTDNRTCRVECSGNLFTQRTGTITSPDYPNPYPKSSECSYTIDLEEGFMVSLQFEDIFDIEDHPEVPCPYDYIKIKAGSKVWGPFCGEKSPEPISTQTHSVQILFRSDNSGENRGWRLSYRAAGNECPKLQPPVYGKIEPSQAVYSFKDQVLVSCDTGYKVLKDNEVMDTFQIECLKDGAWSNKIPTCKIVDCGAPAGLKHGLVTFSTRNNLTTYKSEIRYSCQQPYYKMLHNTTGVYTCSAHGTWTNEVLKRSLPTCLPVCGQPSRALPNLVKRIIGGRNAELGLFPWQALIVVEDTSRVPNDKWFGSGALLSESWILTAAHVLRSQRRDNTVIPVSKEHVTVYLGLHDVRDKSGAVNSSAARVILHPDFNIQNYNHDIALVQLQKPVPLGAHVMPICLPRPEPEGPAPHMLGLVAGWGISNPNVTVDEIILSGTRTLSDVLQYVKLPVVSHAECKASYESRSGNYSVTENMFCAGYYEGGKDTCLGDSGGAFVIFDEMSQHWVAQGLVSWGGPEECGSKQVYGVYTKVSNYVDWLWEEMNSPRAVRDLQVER

human MASP3-His (human), sequence (P48740 other isoform, or with tags, fused parts or gaps): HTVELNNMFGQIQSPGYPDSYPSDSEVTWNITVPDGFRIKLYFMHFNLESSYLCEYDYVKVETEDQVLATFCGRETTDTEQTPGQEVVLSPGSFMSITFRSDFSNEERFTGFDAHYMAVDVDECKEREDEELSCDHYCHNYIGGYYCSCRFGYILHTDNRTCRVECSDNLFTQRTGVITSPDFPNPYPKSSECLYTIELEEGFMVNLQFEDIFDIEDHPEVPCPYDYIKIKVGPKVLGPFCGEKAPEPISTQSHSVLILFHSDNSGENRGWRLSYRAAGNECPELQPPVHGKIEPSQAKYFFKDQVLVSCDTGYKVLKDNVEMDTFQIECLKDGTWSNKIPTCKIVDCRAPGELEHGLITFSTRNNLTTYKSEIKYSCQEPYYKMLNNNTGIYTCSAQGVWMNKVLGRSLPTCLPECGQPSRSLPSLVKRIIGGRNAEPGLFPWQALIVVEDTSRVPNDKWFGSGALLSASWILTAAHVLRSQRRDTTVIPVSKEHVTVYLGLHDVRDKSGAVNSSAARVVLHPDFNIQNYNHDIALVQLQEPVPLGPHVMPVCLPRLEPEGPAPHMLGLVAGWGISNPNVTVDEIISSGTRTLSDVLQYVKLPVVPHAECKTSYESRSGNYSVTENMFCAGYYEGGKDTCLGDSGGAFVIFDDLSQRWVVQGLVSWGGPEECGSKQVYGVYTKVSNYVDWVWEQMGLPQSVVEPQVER
MASP3 in Factor D depleted human plasma (human), sequence (P48740 other isoform, or with tags, fused parts or gaps): as above

A word on the EC50: it is the concentration needed to bring the measured effect to its halfway point. With OMS906 (antibody), the Inhibit hemolysis IC50 was 17.1 nM in test [1] and 13 nM in test [3]. In the test with human MASP3-His (human) [2], this substance gave an IC50 (nM), inhibition of MASP3 enzyme activity (cleavage of fluorescent tripeptide Boc-Val-Pro-Arg-AMC) of 200 nM. For the same substance, the EC50 in the test with human MASP3-His (human) [4] was 0.98 nM; in test [5] it was 2.97 nM; with mouse MASP3-His (mouse), 5.33 nM.
